Values quoted from earlier work in patent US6468959B1, “Peroral dosage form for peptide containing medicaments, in particular insulin” (ALFATEC-Pharm GmbH, priority 1991, dated 2002).

Conditions: weakly acid environments of pH 3 to 4 and at pH 7 to 8

In the case of insulin, the solubility is listed as “soluble” and the stability is listed as “adequately stable”.
